Experimental findings from article PMC4072508, “Genome-Wide Prediction and Validation of Peptides That Bind Human Prosurvival Bcl-2 Proteins” (PLoS Computational Biology, 2014) are described below.

In this test the target is Bcl-xL, Q07817. The test can be described thus: peptide SPOT array, c-Myc-tagged receptor at 1 uM or 100 nM, anti-c-Myc-Cy3.
Sequence of Bcl-xL, Q07817 (Q07817 1-209): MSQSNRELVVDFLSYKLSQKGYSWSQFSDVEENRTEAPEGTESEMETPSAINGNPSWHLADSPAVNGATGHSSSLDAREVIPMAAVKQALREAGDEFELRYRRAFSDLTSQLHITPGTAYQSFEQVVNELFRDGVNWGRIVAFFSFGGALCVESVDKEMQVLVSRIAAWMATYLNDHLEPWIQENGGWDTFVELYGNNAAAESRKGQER

On to GQISDEVAERLMTIAYESGVNLFDTA [KCNAB1], for which the SPOT signal as a fraction of Bim BH3's signal on the same receptor and array was found to be 0.02.

ASKLKGAAVKLADFGLAIEVEGEQQA [CAMK2A] showed an SPOT signal as a fraction of Bim BH3's signal on the same receptor and array of 0.03.

Molecule YIEYLKSSDRLDEAAQRLATVVNDER [XAB2] registered an SPOT signal as a fraction of Bim BH3's signal on the same receptor and array of 0.03.

With AIKSQRMVQNLLSLARKICERVHRSP [ZBED4], the SPOT signal as a fraction of Bim BH3's signal on the same receptor and array turned out to be 0.26.

SSDVIAVCQSLRQMAEKCQQDPESCW [MMS19]: the SPOT signal as a fraction of Bim BH3's signal on the same receptor and array was 0.02.

On to LGRTGQVCLFDKRGADQHALDQEQRD [ACAP3], for which the SPOT signal as a fraction of Bim BH3's signal on the same receptor and array amounted to 0.08.

YRDLPLAAVDLSTAGSQLLSNLDEDY [C15orf27] showed an SPOT signal as a fraction of Bim BH3's signal on the same receptor and array of 0.02.

Turning to GHDATEDARTILELARYFLKHGPKKI [XXXX], the SPOT signal as a fraction of Bim BH3's signal on the same receptor and array turned out to be 0.11.

In turn, RYRHGAPAEQLRHLLDMLTTKWATLQ showed an SPOT signal as a fraction of Bim BH3's signal on the same receptor and array of 0.97.

AHKARALARLLRQTALAAFSDFKRLQ [FAM43B] gave an SPOT signal as a fraction of Bim BH3's signal on the same receptor and array of 0.65.

In the case of YEHLRQFCLELNGLAVKLQSECHPDT [MOBKL3], the SPOT signal as a fraction of Bim BH3's signal on the same receptor and array was 0.03.

On to TFETQEDAQKILQEAEKLNYKDKKLN [BOLL], for which the SPOT signal as a fraction of Bim BH3's signal on the same receptor and array came to 0.02.

GFANHDVVEVLRNALQVVHLTLVRRK [INADL] registered an SPOT signal as a fraction of Bim BH3's signal on the same receptor and array of 0.18.

AYTMERSARQIMHTAMKYNLGLDLRT [GLUD2] had an SPOT signal as a fraction of Bim BH3's signal on the same receptor and array of 0.19.

Molecule QEQLLTLASILREDGKVFDEKVYYTA [HEBP2] registered an SPOT signal as a fraction of Bim BH3's signal on the same receptor and array of 0.03.

AKIIGNNVKKLQKFASTVKMWVFEET [GPD1L] gave an SPOT signal as a fraction of Bim BH3's signal on the same receptor and array of 0.07.

AHGVRDVSKELVGLAEHAATRLRFTK [TMEM151A]: the SPOT signal as a fraction of Bim BH3's signal on the same receptor and array turned out to be 0.1.

YKGHREIARYLLEQGAQVNRRSAKGN yielded an SPOT signal as a fraction of Bim BH3's signal on the same receptor and array of 1.44.

NKQLRKETESLRKIALEAQKKAKVKI came in with an SPOT signal as a fraction of Bim BH3's signal on the same receptor and array of 0.5.

For ARELEEISERLEEASGATSAQIEMNK [MYH13], the SPOT signal as a fraction of Bim BH3's signal on the same receptor and array stood at 0.02.

In turn, LREVRESIRFLRQVGRDWVQRRREAL [CYP46A1] came in with an SPOT signal as a fraction of Bim BH3's signal on the same receptor and array of 0.8.

In turn, IERMIHFGRELQAMSEQLRRDCGKNT [RANBP9] returned an SPOT signal as a fraction of Bim BH3's signal on the same receptor and array of 0.06.

The molecule EEQLEKLIKKLRKASEGLNSTLKDHI [CCDC76] displayed an SPOT signal as a fraction of Bim BH3's signal on the same receptor and array of 0.03.

For the molecule RYRHGAPAEQDRHLADMLTTKWATLQ, the SPOT signal as a fraction of Bim BH3's signal on the same receptor and array was 0.71.

Take SQATGELADLIQQLSEKFGKNLNKDH [TRPC7]: the SPOT signal as a fraction of Bim BH3's signal on the same receptor and array was 0.03.

As to RGRTRGWVQTDARMSRRTRGPVERAA [C6orf223], the SPOT signal as a fraction of Bim BH3's signal on the same receptor and array stood at 0.91.

Turning to LEKQNNSASDLHEISNEILRIIERTG [GPR112], the SPOT signal as a fraction of Bim BH3's signal on the same receptor and array is 0.02.

ILRHKDIIDDLVKSGHKIMTACSEEE [DST] gave an SPOT signal as a fraction of Bim BH3's signal on the same receptor and array of 0.03.

Molecule KTRADSVANKLGSFSKTLGIKLKKNM [OTUD7A] registered an SPOT signal as a fraction of Bim BH3's signal on the same receptor and array of 0.87.

For the molecule NKQLRKETESDRKIALEAQKKAKVKI, the SPOT signal as a fraction of Bim BH3's signal on the same receptor and array amounted to 0.32.

With SAKLGKSSSLLTQTSEECNGILTEKM [ZNF396], the SPOT signal as a fraction of Bim BH3's signal on the same receptor and array worked out at 0.02.

The molecule NKDGKSVSNRDRRLSDNCGGKVLSIT [KIAA0430] yielded an SPOT signal as a fraction of Bim BH3's signal on the same receptor and array of 0.22.

As for VIKQRRLPDQDSKLADRIQLSGRYYL [RAPGEF2], the SPOT signal as a fraction of Bim BH3's signal on the same receptor and array came to 1.24.

In turn, KSRLVQQSKADKELADELQERCQRPA [TRIM58] showed an SPOT signal as a fraction of Bim BH3's signal on the same receptor and array of 0.05.

NRQLANMVNNLKEISQEAREGTQGER [TRIM21] displayed an SPOT signal as a fraction of Bim BH3's signal on the same receptor and array of 0.03.

RLRHDEIITLLKNVGERVVLEVEYEL [GRIP2] gave an SPOT signal as a fraction of Bim BH3's signal on the same receptor and array of 0.03.

As to NEEGQQFALKDHRLGRTSFRNLKNKR [RIOK2], the SPOT signal as a fraction of Bim BH3's signal on the same receptor and array was found to be 1.05.

Turning to KPRMSNTSFVIQHFADKVEYKCEGFL [MYO5C], the SPOT signal as a fraction of Bim BH3's signal on the same receptor and array was found to be 0.04.

The molecule SGEFREIGTVIDQIAETLWEQVFSKL [ATL2] registered an SPOT signal as a fraction of Bim BH3's signal on the same receptor and array of 0.03.

The molecule DLSSTFVSLALRKVLDWPLSARREKG [TTC31] gave an SPOT signal as a fraction of Bim BH3's signal on the same receptor and array of 0.17.

LQETTLVANQLREAASRLKWTTNTGP [MAN2B1] yielded an SPOT signal as a fraction of Bim BH3's signal on the same receptor and array of 0.06.

SCMATVIHNPDKALGDQFYKEAIEHC [DPF3]: the SPOT signal as a fraction of Bim BH3's signal on the same receptor and array was found to be 0.02.

As to QAEADHLGKELQSVSAKLQAQVEENE [GOLGA6L1], the SPOT signal as a fraction of Bim BH3's signal on the same receptor and array turned out to be 0.02.

YGRLRPRARSLSKALTAINWLTKKFL [MYO15A] registered an SPOT signal as a fraction of Bim BH3's signal on the same receptor and array of 0.94.

Regarding LAELQQRSDQLLDMSSTFNKTTQNLA [VAMP5], the SPOT signal as a fraction of Bim BH3's signal on the same receptor and array amounted to 0.02.

Molecule YKGHREIARYDLEQGAQVNRRSAKGN came in with an SPOT signal as a fraction of Bim BH3's signal on the same receptor and array of 1.82.

Turning to AERHKQEADDIVRVAKTANDTSTEAY [LAMC1], the SPOT signal as a fraction of Bim BH3's signal on the same receptor and array was 0.02.

For LVNIRKDTLRLVKCAEEVKSPGEEAS [RNF157], the SPOT signal as a fraction of Bim BH3's signal on the same receptor and array is 0.03.

In turn, DTIFHRAAVRLRDLGGAILRHARRQA [BRPF3] showed an SPOT signal as a fraction of Bim BH3's signal on the same receptor and array of 0.9.

NKQLRKETESLRKILLEAQKKAKVKI came in with an SPOT signal as a fraction of Bim BH3's signal on the same receptor and array of 0.31.

Turning to HNQLTTVPERLSNCSRSLKNLILKNN [TLR7], the SPOT signal as a fraction of Bim BH3's signal on the same receptor and array was determined as 0.29.

In the case of FPDARDMVRYLGDFADTLGLRVQYNT [FOXRED2], the SPOT signal as a fraction of Bim BH3's signal on the same receptor and array is 0.03.
